From patent publication US20220348684A1 (YALE UNIVERSITY, published 2022)
Ends that are not written are not given here. BSA = bovine serum albumin (carrier protein)

T1: peptide 3A conjugated to BSA
T1 construct: Renalase-2 specific peptide; also called 3A5; not shown: BSA carrier, chemically conjugated via the cysteine
T1 peptide: PSAGVILGC(BSA)

T2: 1F peptide conjugated to BSA
T2 construct: Renalase peptide present only in renalase-1; also called 1F-BSA protein; 1F antigen; not shown: BSA carrier, chemically conjugated via the cysteine
T2 peptide: C(BSA)VLEALKNYI


What was measured:
human renalase [1] = target: T3, human renalase (human, UniProt Q5VYX0 18-342, limits assumed); assay: cell-based or functional assay
mouse renalase [2] = target: T4, mouse renalase (mouse, UniProt A7RDN6 18-342, limits assumed); assay: cell-based or functional assay
mouse renalase [3] = target: T4, mouse renalase; assay: multipoint ELISA (A450), IgG dilution series on mouse renalase
human renalase [4] = target: T3, human renalase; assay: multipoint ELISA (A450), IgG dilution series on human renalase
[5] = target: T5, renalase-1 (full-length recombinant protein) (human, UniProt Q5VYX0 18-342, limits assumed); assay: competition ELISA on coated renalase-1: unconjugated 1D 28-4 titrated against a constant amount of biotinylated 1D 37-10, NeutrAvidin-HRP [panel A]
T5 construct: Coated on ELISA plates as bacterially expressed renalase-1; Injected as purified recombinant renalase-1 in the Biacore assay; also called renalase-1 protein; RNLS
Protocol: (§1) Specificity of Epitope Binding: Bacterially-expressed renalase isoforms, diluted to 100 ng/well in PBS, were bound to a 96 well microtiter plate by overnight incubation at 4° C. The plate was blocked with a solution of 8% NFDM in PBS for one hour at 33° C. The renalase protein was probed with a dilution series of an unconjugated antibody, typically starting at 1 μg/mL, mixed with a different biotinylated antibody. […] Both antibodies were mixed together in PBST and applied as one addition of 50μL per well. After one hour incubation at 33° C., the plate was rinsed three times with PBST. Binding of the biotinylated antibody to renalase was assayed by adding HRP-conjugated Neutravidin (HRP-NA) at 0.4 ng/mL, 50 μL per well. The plate was incubated at room temperature for 40 minutes. After incubation, the plate was washed three times with PBST and once with PBS. The HRP substrate 3, 3′, 5, 5′-tetramethylbenzidine (TMB) was added to 100 μL per well, and plate was incubated for approximately 5 minutes at room temperature. To stop the reaction, 100 μL 2 N H2504 was added to each well. The plate was read at 450 nm in a spectrophotometer.
(§2) Bacterially-expressed renalase-1, diluted to 100ng/well in PBS, was bound to a 96 well microtiter plate by overnight incubation at 4° C. […]

[6] = target: T1, peptide 3A conjugated to BSA; assay: ELISA on peptide antigen
Protocol: (§3) Peptide-Antigen Specificity ELISA: Bovine serum albumin (BSA)-conjugated renalase peptide antigen, diluted to 100 ng/well in PBS, was bound to a 96 well microtiter plate by overnight incubation at 4° C. The plate was blocked with a solution of 8% NFDM in PBS for one hour at 33° C. The peptide antigen was probed with a dilution series of the antibody raised against it, or with an antibody raised against a different antigen. The starting concentration of antibody was typically 5 μg/mL, with two-fold dilution steps prepared in PBS containing Tween-20 to 0.05% (PBST). After one hour incubation at 33° C., the plate was rinsed three times with PBST. Antibody binding was assayed by adding HRP-conjugated anti-rabbit IgG at 50 ng/mL, 50 μL per well. The plate was incubated at room temperature for 40 minutes. After incubation, the plate was washed three times with PBST and once with PBS. The HRP substrate 3, 3′, 5, 5′-tetramethylbenzidine (TMB) was added to 100 μL per well, and plate was incubated for approximately 5 minutes at room temperature. To stop the reaction, 100 μL 2 N […] was added to each well. The plate was read at 450 nm in a spectrophotometer.
(§4) Renalase peptides used for immunization were synthesized, then conjugated to bovine serum albumin (BSA). […] The plate was read at 450 nm in a spectrophotometer after reaction of HRP with the substrate TMB. […]

[7] = target: T2, 1F peptide conjugated to BSA; assay: ELISA on coated 1F peptide-BSA conjugate, antibody dilution series, anti-rabbit IgG-HRP
Protocol: as §3, §4

[8] = target: T6, renalase-2 (recombinant protein) (human, UniProt Q5VYX0 18-293); assay: ELISA on coated renalase-2, antibody dilution series (axis: log (ng/ml) supe), anti-rabbit IgG-HRP
T6 construct: Bacterially expressed and coated on ELISA plates; also called renalase-2 isoform
Protocol: Bacterially-expressed renalase-1 and 2 isoforms, were diluted to 100 ng/well in PBS and bound to a 96 well microtiter plate. The plate was blocked with a solution of 8% NFDM in PBS for one hour at 33° C. The renalase proteins were probed with a dilution series of the antibodies 1D-28-4, 1D-37-10, 1F-42-7, 1F-26-1 and 3A5-2. The starting concentration of antibody was typically 1μg/mL, with two-fold dilution steps prepared in PBS containing Tween-20 to 0.05% PBST. After one hour incubation at 33° C., the plate was rinsed three times with PBST. Antibody binding was assayed by adding HRP-conjugated anti-rabbit IgG at 50 ng/mL, 50μL per well. The plate was incubated at room temperature for 40 minutes. After incubation, the plate was washed three times with PBST and once with PBS. The HRP substrate 3, 3′, 5, 5′-tetramethylbenzidine (TMB) was added to 100 μL per well, and plate was incubated for approximately 5 minutes at room temperature. To stop the reaction, 100 μL 2 N H₂SO₄ was added to each well. The plate was read at 450 nm in a spectrophotometer.

[9] = target: T5, renalase-1 (full-length recombinant …); assay: competition ELISA on coated renalase-1: unconjugated 1F 42-7 titrated against a constant amount of biotinylated 1F 26-1, NeutrAvidin-HRP [panel A]
Protocol: as §1, §2

T3 sequence (Q5VYX0 18-342 limits assumed): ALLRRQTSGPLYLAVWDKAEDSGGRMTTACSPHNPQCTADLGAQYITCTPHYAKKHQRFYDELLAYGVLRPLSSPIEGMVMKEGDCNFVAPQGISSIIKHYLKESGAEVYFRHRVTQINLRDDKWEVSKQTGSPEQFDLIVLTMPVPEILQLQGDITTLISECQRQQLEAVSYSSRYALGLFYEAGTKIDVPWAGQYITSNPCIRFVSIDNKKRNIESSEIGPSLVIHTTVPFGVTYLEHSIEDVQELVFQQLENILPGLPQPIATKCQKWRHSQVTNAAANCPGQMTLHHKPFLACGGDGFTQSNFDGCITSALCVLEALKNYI
T4 sequence (A7RDN6 18-342 limits assumed): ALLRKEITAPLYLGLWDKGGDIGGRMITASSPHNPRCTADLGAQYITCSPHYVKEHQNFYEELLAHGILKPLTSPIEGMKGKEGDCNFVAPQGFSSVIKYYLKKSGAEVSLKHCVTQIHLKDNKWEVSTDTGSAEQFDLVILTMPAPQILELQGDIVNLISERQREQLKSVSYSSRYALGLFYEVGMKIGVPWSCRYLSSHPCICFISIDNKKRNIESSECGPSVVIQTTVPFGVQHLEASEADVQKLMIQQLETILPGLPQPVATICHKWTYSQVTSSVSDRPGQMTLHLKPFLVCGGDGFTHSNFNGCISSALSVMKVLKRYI
T5 sequence (Q5VYX0 18-342 limits assumed): as the sequence (Q5VYX0 18-342 limits assumed) above
T6 sequence (Q5VYX0 other isoform, or with tags, fused parts or gaps limits assumed): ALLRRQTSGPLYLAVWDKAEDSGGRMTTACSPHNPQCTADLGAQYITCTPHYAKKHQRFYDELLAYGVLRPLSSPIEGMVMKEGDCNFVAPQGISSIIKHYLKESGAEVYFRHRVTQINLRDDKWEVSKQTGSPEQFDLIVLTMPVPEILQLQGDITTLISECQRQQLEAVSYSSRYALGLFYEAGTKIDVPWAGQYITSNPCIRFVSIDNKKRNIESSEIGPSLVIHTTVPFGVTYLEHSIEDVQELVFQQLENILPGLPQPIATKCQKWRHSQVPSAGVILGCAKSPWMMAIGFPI

Row | EC50 (read off the curve) (human renalase [4]) | Binder | IC50 of % cell survival, BxPC3 (human pancreatic adenocarcinoma) cells (human renalase [1]) | IC50 of % cell survival, YUMM1.7 (mouse melanoma) cells (mouse renalase [2]) | also measured
1 | – | M28-K5 (humanized, affinity-matured variant of M28) (antibody, V domains shown) VH: EVQLVESGGGLVQPGGSLRLSCAASGFNLSSFAVHWVRQAPGKGLEWVALISGRGTRFYADSVKGRFTISKDTSKNTAYLQMNSLRAEDTAVYYCARHWYSGGVVRLDAWGQGTLVTVSS VL: DIQMTQSPSSLSASVGDRVTITCRASQSVYDNNNVAWYQQKPGKAPKLLIYGASTLYSGVPSRFSGSRSGTDFTLTISSLQPEDFATYYCLGEGPCSVTDCLIFGQGTKVEIKR | 24.5 nM | 3760 nM | –
2 | ~0.06 nM | M28-K14 (humanized, affinity-matured variant of M28) (antibody, V domains shown, the residue limits are my own count; also called M28-14) VH: EVQLVESGGGLVQPGGSLRLSCAASGFNLSSFAVHWVRQAPGKGLEWVALISGRGTRFYADSVKGRFTISKDTSKNTAYLQMNSLRAEDTAVYYCARYGYSGDVNRLDLWGQGTLVTVSS VL: DIQMTQSPSSLSASVGDRVTITCRASQSVYDNNNVAWYQQKPGKAPKLLIYGASTLYSGVPSRFSGSRSGTDFTLTISSLQPEDFATYYCLGEGPCSVTDCLIFGQGTKVEIKR | – | 1.41 nM | EC50 (read off the curve) (mouse renalase [3]): ~0.08 nM
3 | – | M28-K13 (humanized, affinity-matured variant of M28) (antibody, V domains shown) VH: EVQLVESGGGLVQPGGSLRLSCAASGFNLSSFAVHWVRQAPGKGLEWVALIGVRGSLYYADSVKGRFTISKDTSKNTAYLQMNSLRAEDTAVYYCARHWYSGGVVRLDAWGQGTLVTVSS VL: DIQMTQSPSSLSASVGDRVTITCRASQSVYDNNNVAWYQQKPGKAPKLLIYGASTLYSGVPSRFSGSRSGTDFTLTISSLQPEDFATYYCLGEFSCSSADCFAFGQGTKVEIKR | 25.5 nM | 31.5 nM | –
4 | ~0.05 nM | M28-K16 (humanized, affinity-matured variant of M28) (antibody, V domains shown, the residue limits are my own count) VH: EVQLVESGGGLVQPGGSLRLSCAASGFNLSSFAVHWVRQAPGKGLEWVALISGRGTRFYADSVKGRFTISKDTSKNTAYLQMNSLRAEDTAVYYCARHWYSGGVVRLDAWGQGTLVTVSS VL: DIQMTQSPSSLSASVGDRVTITCRASQSVYDNNNVAWYQQKPGKAPKLLIYGASTLYSGVPSRFSGSRSGTDFTLTISSLQPEDFATYYCLGEFSCSSADCFAFGQGTKVEIKR | 1700 nM | 17.5 nM | EC50 (read off the curve) (mouse renalase [3]): ~0.06 nM
5 | – | M28-K2 (humanized, affinity-matured variant of M28) (antibody, V domains shown) VH: EVQLVESGGGLVQPGGSLRLSCAASGFNLSSFAVHWVRQAPGKGLEWVALIGVRGSLYYADSVKGRFTISKDTSKNTAYLQMNSLRAEDTAVYYCARHWYSGGVVRLDAWGQGTLVTVSS VL: DIQMTQSPSSLSASVGDRVTITCRASQSVYDNNNVAWYQQKPGKAPKLLIYGASTLYSGVPSRFSGSRSGTDFTLTISSLQPEDFATYYCLGEGPCSVTDCLIFGQGTKVEIKR | 31.7 nM | 1330 nM | –
6 | ~0.3 nM | monoclonal antibody 1D-28-4 (antibody, V domains shown, also called m28-RNLS; Ren1D 28-4) VH: QSVEESGGRLVTPGTPLTLTCTVSGFSLSSFAVGWVRQAPGKGLEYIGIISSVGITRYASWAAGRFTISKTSTTVDLKITSPTTEDTATYFCARYGYSGDVNRLDLWGQGTLVTVSS VL: AQVLTQTASPVSAAVGGTVTINCQASQSVYDNNNLAWYQQKPGQPPKQLIYGASTLASGVSSRFKGSGSGTQFTLTISGVQCDDAATYYCLGEFSCSSADCFAFGGGTEVVVKG | 1.5 nM | 70 nM | IC50 (read off the curve) [5]: ~2 µg/mL
7 | – | monoclonal antibody 3A-5-2 (antibody, V domains shown, Rabbit monoclonal from hybridoma, raised against the renalase-2 specific peptide 3A (3A5)) VH: QSLEESGGRLVTPGTPLTLTCTVSGFSLNNYHIYWVRQAPGKGLEYIGIIFNGGTYYARWTKGRFTISKTSTTVDLKMTSLTTEDTATYFCARGDGIWGPGTLVTVSL VL: AQVLTQTPASVSAAVGGTVTINCQASQSVFNNNYLAWYQQKPGQPPKRLIYSASTLASGVSSRFKGSGSGTEFTLTMSGVECDDAATYYCAGSFDCNSGDCVAFGGGTEVVVKG | – | – | binding result [6]: binds
8 | – | monoclonal antibody 1F-26-1 (antibody, V domains shown, Rabbit monoclonal from hybridoma, raised against the 1F peptide; also called IF 26-1) VH: QSVKESEGGLFKPTDTLTLTCTVSGFSLSSYGVTWVRQAPGNGLEWIGLIGDRGTTFYASWAKSRSTITRNTNLNTVTLKMTRLTAADTATYFCARGSGYGARIWGPGTLVTVSS VL: AQVLTQTPSPVSAAVGGTVTINCQSSQSVYKNNYLAWYQQKPGQPPKLLIYETSKLASGVPPRFSGSGSGTQFTLTISSVQCDDAATYYCQGGYSGVDFMAFGGGTEVVVKG | – | – | EC50 (read off the curve) [7]: ~0.3 µg/mL; binding result [8]: no binding (tested: 1000 ng/ml)
9 | – | monoclonal antibody 1F-42-7 (antibody, V domains shown, Rabbit monoclonal from hybridoma, raised against the 1F peptide; Biotinylated in the biotin ELISA and Biacore assays; also called IF 42-7; M42) VH: QSVKESEGGLFKPTDTLTLTCTVSGFSLTTYGVTWVRQAPGNGLEWIGLIGDRGTTYYASWVNGRSTITRNTNLNTVTLKMTRLTAADTATYFCARGSGYGARIWGPGTLVTVAS VL: AQVLTQTPSPMSAALGGTVTINCQSSQTVYNNNYLSWYQQKPGQPPKLLIYETSKLSSGVPPRFSGSGSGTQFTLTISSVQCDDAATYYCQGGYSGVDFMAFGGGTEVVVKG | – | – | IC50 (read off the curve) [9]: ~1 µg/mL; EC50 (read off the curve) [7]: ~0.3 µg/mL; binding result [8]: no binding (tested: 1000 ng/ml)
